Measured values published in the supplement of paper PMC11865577.

Columns and labels:
Assay in all cases: pull-down binding Z-score (relative to library population); higher = stronger binding
Settings in all cases: RNA library: Library-2
[1] = test system: TO-3-N3 (biotin conjugate)
Procedure, shortened: (§1)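 Streptavidin beads with 100 pmol of biotin-conjugated small molecule were incubated for 60 min at 25 °C with 1 μg of heat-folded Cy5- or Cy3-end-labelled RNA library in phosphate/NaCl/KCl buffer. Bound RNA was eluted in hot SDS after three washes and hybridised to a DNA barcode microarray at 55.5 °C for 20 h. Each binding score is a library-referenced Z-score, computed after beads-only subtraction and a trimmed mean of barcoded replicate probes.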

[2] = test system: TO-N3 (biotin conjugate)
Procedure, shortened: as §1

[3] = test system: TO-N3-2 (biotin conjugate)
Procedure, shortened: as §1

[4] = test system: TO-3-N3-2 (biotin conjugate)
Procedure, shortened: as §1

Q: Which “pull-down binding Z-score” value [1] does the source give for “ACGUGAGUCUUGUAAAACCUUCUUUUUACGUUUACUCUCGU” here?
A: 0.0863

Q: And the “pull-down binding Z-score” value [2]?
A: 0.206

Q: And the “pull-down binding Z-score” value [3]?
A: -0.213

Q: What about the “pull-down binding Z-score” value [4] of the same sequence?
A: 0.0619

Q: Which “pull-down binding Z-score” value [1] does the source give for “GCGCUUUAGGUCUACACGGGCCGAAGCUAACGCGUUAAGCGC [3-way model-5_mrRNA]” here?
A: 0.146

Q: And the “pull-down binding Z-score” value [2]?
A: 0.0607

Q: What about the “pull-down binding Z-score” value [3] of the same sequence?
A: 0.245

Q: And the “pull-down binding Z-score” value [4]?
A: 0.0632

Q: Which “pull-down binding Z-score” value [1] does the source give for “GUUGUCUUUGAUGAAAUUUCAAUGGCCAC [DMSMaPseq_invitro_SARS-CoV-2_Motif_310]” here?
A: -0.693

Q: And the “pull-down binding Z-score” value [2]?
A: -0.615

Q: What about the “pull-down binding Z-score” value [3] of the same sequence?
A: 0.376

Q: What about the “pull-down binding Z-score” value [4] of the same sequence?
A: -0.29

Q: For CAACCUAAAUAGAGGUAUG, which “pull-down binding Z-score” value [1] is on record?
A: -0.399

Q: What about the “pull-down binding Z-score” value [2] of the same sequence?
A: -0.716

Q: And the “pull-down binding Z-score” value [3]?
A: -0.591

Q: And the “pull-down binding Z-score” value [4]?
A: -0.292

Q: “GCUUUCUUUGGC [IAV_invivo_NS1_NEP_8_Motif_2+IAV_invivo_NS1_NEP_8_Motif_2]” was tested. Which “pull-down binding Z-score” value [1] did it give?
A: -0.0308

Q: And the “pull-down binding Z-score” value [2]?
A: -0.43

Q: And the “pull-down binding Z-score” value [3]?
A: -1.09

Q: And the “pull-down binding Z-score” value [4]?
A: -0.505

Q: “UGGUUUUGCUAAAUUCCUAAAAACUA [DMSMaPseq_invitro_SARS-CoV-2_Motif_244]” was tested. Which “pull-down binding Z-score” value [1] did it give?
A: -0.45

Q: What about the “pull-down binding Z-score” value [2] of the same sequence?
A: -0.632

Q: And the “pull-down binding Z-score” value [3]?
A: -0.866

Q: What about the “pull-down binding Z-score” value [4] of the same sequence?
A: -0.0765

Q: How did the “pull-down binding Z-score” value [1] turn out when AGUGUUUGCCUAGGUUCUUUAAUCUACUCAACCGCU was run?
A: -0.346

Q: And the “pull-down binding Z-score” value [2]?
A: -0.288

Q: What about the “pull-down binding Z-score” value [3] of the same sequence?
A: -0.432

Q: What about the “pull-down binding Z-score” value [4] of the same sequence?
A: -0.219

Q: For “GAGCUGCCCUGUCGGUGAAGCUC [IAV_invivo_NA_6_Motif_6+IAV_invivo_NA_6_Motif_6]”, which “pull-down binding Z-score” value [1] is on record?
A: 0.171

Q: And the “pull-down binding Z-score” value [2]?
A: 0.217

Q: What about the “pull-down binding Z-score” value [3] of the same sequence?
A: 0.384

Q: And the “pull-down binding Z-score” value [4]?
A: -0.0787

Q: How did the “pull-down binding Z-score” value [1] turn out when GCGCUGCCAGAAACUGGCAAGCGC [bulge-A] was run?
A: -0.289

Q: And the “pull-down binding Z-score” value [2]?
A: -0.493

Q: What about the “pull-down binding Z-score” value [3] of the same sequence?
A: -1.12

Q: And the “pull-down binding Z-score” value [4]?
A: -0.541

Q: Which results are given for AAAUAAGUAUGAUACUUACCUG [U1snRNP5ss-4]?
A: pull-down binding Z-score [1]: -0.522; pull-down binding Z-score [2]: -0.506; pull-down binding Z-score [3]: -0.672; pull-down binding Z-score [4]: -0.0682

Q: What does the source list for “UGGGUUGGGUUGGGUUGGGUUGGGUUGGGU [G4_r(UGGGU)6]”?
A: pull-down binding Z-score [1]: 8.7; pull-down binding Z-score [2]: 7.32; pull-down binding Z-score [3]: 5.72; pull-down binding Z-score [4]: 10.2

Q: Which “pull-down binding Z-score” value [1] does the source give for “CCUAAAGUGAAGUAUUUAUACUUUAUUAAAGG [DMSMaPseq_invitro_SARS-CoV-2_Motif_232]” here?
A: 0.463

Q: What about the “pull-down binding Z-score” value [2] of the same sequence?
A: 0.411

Q: What about the “pull-down binding Z-score” value [3] of the same sequence?
A: -0.916

Q: What about the “pull-down binding Z-score” value [4] of the same sequence?
A: -0.181

Q: With GUGUUAUAACAC as the sequence, how does the “pull-down binding Z-score” value [1] read?
A: -0.176

Q: What about the “pull-down binding Z-score” value [2] of the same sequence?
A: -0.404

Q: What about the “pull-down binding Z-score” value [3] of the same sequence?
A: -1.12

Q: And the “pull-down binding Z-score” value [4]?
A: -0.531

Q: Which “pull-down binding Z-score” value [1] does the source give for “UAUAACAAUACUAGAUGGAAUUUCACAGUAUUCACUGAGACUCAUUGAUGCUAUGAUGUUCACAUCUGAUUUGGCUACUAACAAUCUAGUUGUA” here?
A: -0.682

Q: And the “pull-down binding Z-score” value [2]?
A: -0.688

Q: And the “pull-down binding Z-score” value [3]?
A: -1.1

Q: And the “pull-down binding Z-score” value [4]?
A: -0.178

Q: With “GUUUUUCUGUUUGGAACUUUAAUUUUAGCCAUGGCAGAUUCCAACGGUACUAUUACCGUUGAAGAGCUUAAAAAGCUCCUUGAAC” as the sequence, how does the “pull-down binding Z-score” value [1] read?
A: -0.86

Q: And the “pull-down binding Z-score” value [2]?
A: -0.856

Q: What about the “pull-down binding Z-score” value [3] of the same sequence?
A: -0.41

Q: What about the “pull-down binding Z-score” value [4] of the same sequence?
A: -0.23

Q: With AUUGUUACAUAAACCUAUUGUUUGGCAUGUUAACAAU as the sequence, how does the “pull-down binding Z-score” value [1] read?
A: -0.915

Q: What about the “pull-down binding Z-score” value [2] of the same sequence?
A: -0.895

Q: And the “pull-down binding Z-score” value [3]?
A: -0.663

Q: And the “pull-down binding Z-score” value [4]?
A: -0.197

Q: With AUUGGUGCAGGUAUAUGCGCUAGU as the sequence, how does the “pull-down binding Z-score” value [1] read?
A: -0.974

Q: What about the “pull-down binding Z-score” value [2] of the same sequence?
A: -1.16

Q: And the “pull-down binding Z-score” value [3]?
A: -0.926

Q: What about the “pull-down binding Z-score” value [4] of the same sequence?
A: -0.674

Q: For UGGGUUAUCUUCAACCUA, which “pull-down binding Z-score” value [1] is on record?
A: -0.534

Q: And the “pull-down binding Z-score” value [2]?
A: -0.726

Q: And the “pull-down binding Z-score” value [3]?
A: -0.937

Q: And the “pull-down binding Z-score” value [4]?
A: -0.424

Q: How did the “pull-down binding Z-score” value [1] turn out when “UGUGAUUUUAAUAGCUUCUUAGGAGAAUGACA [SHAPE_invivo_SARS-CoV-2_Motif_573]” was run?
A: -0.571

Q: And the “pull-down binding Z-score” value [2]?
A: -0.641

Q: What about the “pull-down binding Z-score” value [3] of the same sequence?
A: -0.333

Q: And the “pull-down binding Z-score” value [4]?
A: -0.182

Q: Which results are given for GGAAGACCUUAAAUUCCCUCGAGGACAAGGCGUUCC?
A: pull-down binding Z-score [1]: -0.756; pull-down binding Z-score [2]: -0.658; pull-down binding Z-score [3]: -0.19; pull-down binding Z-score [4]: -0.381

Q: Which results are given for “UCUGGAGUAAAAGACUGUGUUGUAUUACACAGUUACUUCACUUCAGA”?
A: pull-down binding Z-score [1]: -0.0665; pull-down binding Z-score [2]: -0.481; pull-down binding Z-score [3]: -0.98; pull-down binding Z-score [4]: -0.0465

Q: What does the source list for “GUCUAGCUGUCCACGAGUGCUUUGUUAAGCGUGUUGACUGGAC”?
A: pull-down binding Z-score [1]: -0.128; pull-down binding Z-score [2]: -0.138; pull-down binding Z-score [3]: -0.24; pull-down binding Z-score [4]: -0.348

Q: “UCUUUCAUGGGA [DMSMaPseq_invitro_SARS-CoV-2_Motif_300]” was tested. Which “pull-down binding Z-score” value [1] did it give?
A: 0.66

Q: And the “pull-down binding Z-score” value [2]?
A: 0.363

Q: What about the “pull-down binding Z-score” value [3] of the same sequence?
A: -0.26

Q: What about the “pull-down binding Z-score” value [4] of the same sequence?
A: 0.0379

Q: What does the source list for “GGGACUGAGAAUUAGCUCAUCCU [IAV_invivo_PB2_1_Motif_14+IAV_invivo_PB2_1_Motif_14]”?
A: pull-down binding Z-score [1]: -0.573; pull-down binding Z-score [2]: -0.536; pull-down binding Z-score [3]: 0.208; pull-down binding Z-score [4]: -0.318

Q: For “UAGUGCAAAGAAUAGAGCUCGCACCGUAGCUGGUGUCUCUAUCUGUAGUACUA”, which “pull-down binding Z-score” value [1] is on record?
A: -0.167

Q: And the “pull-down binding Z-score” value [2]?
A: -0.0718

Q: And the “pull-down binding Z-score” value [3]?
A: 0.18

Q: And the “pull-down binding Z-score” value [4]?
A: 0.188

Q: How did the “pull-down binding Z-score” value [1] turn out when GAUGGUGGCUGUAUUAAUGCUAACCAAGUCAUCGUC was run?
A: -0.273

Q: And the “pull-down binding Z-score” value [2]?
A: 0.31

Q: And the “pull-down binding Z-score” value [3]?
A: 1.4

Q: And the “pull-down binding Z-score” value [4]?
A: 0.129

Q: With CCAUUUCAUCUUUUAAAUGG as the sequence, how does the “pull-down binding Z-score” value [1] read?
A: -0.598

Q: And the “pull-down binding Z-score” value [2]?
A: -0.985

Q: What about the “pull-down binding Z-score” value [3] of the same sequence?
A: -0.946

Q: And the “pull-down binding Z-score” value [4]?
A: -0.38

Q: How did the “pull-down binding Z-score” value [1] turn out when “GAGGGGUGUAUACUGCUGCCGUGAACAUGAGCAUGAAAUUGCUUGGUACACGGAACGUUCUGAAAAGAGCUAUGAAUUGCAGACACCUUUU” was run?
A: -0.406

Q: What about the “pull-down binding Z-score” value [2] of the same sequence?
A: -0.034

Q: And the “pull-down binding Z-score” value [3]?
A: 0.475

Q: And the “pull-down binding Z-score” value [4]?
A: -0.11

Q: With “CACUCAAAGGCGGUGCACCAACAAAGGUUACUUUUGGUGAUGACACUGUGAUAGAAGUG [DMSMaPseq_invitro_SARS-CoV-2_Motif_50]” as the sequence, how does the “pull-down binding Z-score” value [1] read?
A: -0.531

Q: And the “pull-down binding Z-score” value [2]?
A: -0.234

Q: What about the “pull-down binding Z-score” value [3] of the same sequence?
A: -0.0256

Q: What about the “pull-down binding Z-score” value [4] of the same sequence?
A: -0.205

Q: Which results are given for UGCACUUGACCCUCUCUCAGAAACAAAGUGUA?
A: pull-down binding Z-score [1]: 0.756; pull-down binding Z-score [2]: 0.625; pull-down binding Z-score [3]: -0.236; pull-down binding Z-score [4]: -0.162

Q: Which “pull-down binding Z-score” value [1] does the source give for “AGUCAGACAAAUCGCUCCAGGGCAAACUGGAAAGAUUGCUGAUU” here?
A: 0.0712

Q: What about the “pull-down binding Z-score” value [2] of the same sequence?
A: 0.0567

Q: What about the “pull-down binding Z-score” value [3] of the same sequence?
A: 0.136

Q: And the “pull-down binding Z-score” value [4]?
A: 0.0858

Q: Which results are given for “GUUGUAGACGGUUGUAAUUCAUCAACUUGUAUGAUGUGUUACAAACGUAAUAGAGCAAC”?
A: pull-down binding Z-score [1]: -0.88; pull-down binding Z-score [2]: -0.954; pull-down binding Z-score [3]: -0.288; pull-down binding Z-score [4]: -0.529

Q: What does the source list for “GCCCUGGAAUGAUGAUGGGC [IAV_invivo_PB1_2_Motif_20+IAV_invivo_PB1_2_Motif_20]”?
A: pull-down binding Z-score [1]: 0.0132; pull-down binding Z-score [2]: 0.138; pull-down binding Z-score [3]: 0.65; pull-down binding Z-score [4]: 0.012

Q: For GCGCUGCCAGAAACUGGCUUAAGCGC [bulge-UUA], which “pull-down binding Z-score” value [1] is on record?
A: 0.176

Q: What about the “pull-down binding Z-score” value [2] of the same sequence?
A: -0.128

Q: And the “pull-down binding Z-score” value [3]?
A: -0.601

Q: What about the “pull-down binding Z-score” value [4] of the same sequence?
A: -0.252
